The text below walks through data of patent US7348154B2, “IGF binding proteins” (Genentech, Inc., priority 2003, dated 2008).

The term Kd denotes a measure of binding affinity in units of concentration.

Assay [1] concerns the target T1, miniBP-3 fusion protein (Homo sapiens, UniProt P17936).
T1 construct: made in house; host or cells: E. coli BL21, vector pET21a; purified on IgG Sepharose
The assay is described as follows: BIAcore competition: bp15 versus immobilized biotinylated IGF-I for binding to miniBP-3 fusion protein. To be noted: 1.17 to 300 µM bp15, 1 µM miniBP-3 fusion; exact affinity not determined due to lack of saturation. Here is the method: (§1) Peptide bp15 ([…]) (SEQ ID NO:11) was identified by phage display (Lowman et al., Biochemistry, 1998, supra). […] Therefore, bp15 was tested to see if it would bind to the miniBP-3 fusion. Compare FIGS. 7 and 8 for competitive binding data for bp15 to IGFBP-3 and to the miniBP-3 fusion, respectively.
On the technique in general: In SPR one partner is held on a chip, and binding of the other changes the refractive index at the surface.

Assay [2] addresses T2, native-sequence human IGFBP-3 (Homo sapiens, UniProt P17936, A32G).
T2 construct: “wild-type IGFBP-3,” and “full-length IGFBP-3” is wild-type human IGFBP-3; made in house; host or cells: E. coli BL21, vector pET21a
The assay is described as follows: BIAcore competition: bp15 versus immobilized biotinylated IGF-I and -II for binding to IGFBP-3. The settings on record: 15 nM to 100 µM bp15, 20 nM IGFBP-3, 1 hour at room temperature. As to the method: A total of 15 nM to 100:M bp15 peptide and 20 nM native-sequence human IGFBP-3 were incubated for 1 hour at room temperature before injection over immobilized biotinylated native-sequence human IGF-I and -II.
Competition binding experiments were carried out as follows. 15 nM to 100:M bp15 peptide and 20 nM IGFBP-3 were incubated for 1 hour at room temperature before injection at 20:l/min in PBST over immobilized biotinylated IGF-I and -II. Equilibrium binding data was plotted in GraphPad Prism™ software and fit to a one-site competition-binding model.
as §1

The target of assay [3] is native-sequence human IGF-II (Homo sapiens, UniProt P01344). Description: BIAcore kinetic analysis of binding to IGF-II.
Protocol: (§2) Two types of chips were prepared for this purpose.
(§3) Carboxymethylated dextran biosensor chips (CM5, BIAcore Inc.) were activated with EDC (N-ethyl-N′-(3-dimethylaminopropyl)-carbodiimide hydrochloride) and NHS(N-hydroxysuccinimide) according to the supplier's instructions. For immobilization, wild-type IGFBP-3 and mutants in 10 mM sodium acetate, pH 4, were injected onto the biosensor chip at a concentration of 0.2 mg/ml to yield approximately 450-700 RU's (resonance-response units) of covalently coupled protein. Unreacted groups were blocked with an injection of 1 M ethanolamine.
(§4) Kinetic measurements were carried out by injecting two-fold serial dilutions of IGF-I or IGF-II in PBST running buffer (PBS, 0.05% TWEEN-20™ buffer, 0.01% sodium azide) at 25° C. using a flow rate of 20 or 50:l/min. IGF concentrations ranged between 0.4 nM and 50 nM for IGFBP-3 and 100 nM to 25:M for miniBP-3 fusion. For both proteins, association and dissociation rates were calculated using a 1:1 Langmuir association model in the BIAcore™ evaluation software. For wild-type IGFBP-3, the equilibrium dissociation constant was calculated as kd/ka. For miniBP-3 fusion, the equilibrium dissociation constant was calculated by plotting equilibrium binding data in GraphPad Prism™ software (GraphPad Software Inc., San Diego, Calif.) and fitting to a one-site binding model.
(§5) Streptavidin-coated chips were conditioned according to the manufacturer's instructions (BIAcore, Inc.) prior to injection of 0.02 mg/ml of biotinylated IGF-I or IGF-II in 10 mM sodium acetate pH 4. Biotinylated IGF-I and IGF-II were prepared using EZ-Link biotinylation reagents according to the manufacturer's instructions (Pierce). Between 100 and 1000 RUs were immobilized on the chip.
(§6) Concentrations were between 250 nM and 32:M.
In assay [4] the target is native-sequence human IGF-I (Homo sapiens, UniProt P05019). Description: BIAcore kinetic analysis of binding to IGF-I.
Protocol: as §2, §3, §4, §5, §6
Setting [5] is: IGF-II injected over immobilized wild-type IGFBP-3, 25° C., 1:1 Langmuir model.
Setting [6] is: wild-type IGFBP-3, calculated as kd/ka.
Setting [7] is: IGF-I injected over immobilized wild-type IGFBP-3, 25° C., 1:1 Langmuir model.

Sequence of native-sequence human IGF-I (P05019 49-118 limits assumed): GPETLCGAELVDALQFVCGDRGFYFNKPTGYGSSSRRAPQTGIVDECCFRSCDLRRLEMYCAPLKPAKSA
Sequence of native-sequence human IGF-II (P01344 25-91 limits assumed): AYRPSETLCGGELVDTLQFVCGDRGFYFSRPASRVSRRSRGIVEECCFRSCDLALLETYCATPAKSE
T2 sequence (P17936 28-291 A32G): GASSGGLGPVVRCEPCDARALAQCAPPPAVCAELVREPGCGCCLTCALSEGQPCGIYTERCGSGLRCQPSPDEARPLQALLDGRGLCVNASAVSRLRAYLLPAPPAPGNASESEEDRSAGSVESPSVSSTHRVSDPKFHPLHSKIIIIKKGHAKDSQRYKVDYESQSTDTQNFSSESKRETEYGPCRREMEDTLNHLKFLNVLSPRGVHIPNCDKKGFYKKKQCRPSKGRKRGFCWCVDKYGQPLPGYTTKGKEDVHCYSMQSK
T1 sequence (P17936 74-126, added parts left off): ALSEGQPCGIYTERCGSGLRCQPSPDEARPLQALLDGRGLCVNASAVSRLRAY

As for “SEEVCWPVAEWYLCN (Sequence is synthesized) [bp15]”, the “binding to miniBP-3 fusion” value in assay [1] is “does bind to the miniBP-3 fusion, but with reduced affinity compared to wild-type IGFBP-3”. For the same substance, in assay [2], the “competition with IGF-I and -II for binding to IGFBP-3” value was “competes with IGF-I and -II for binding to IGFBP-3”.

On to “Wild-type IGFBP-3: wild-type human IGFBP-3 (SEQ ID NO:1 or 12), produced in E. coli and refolded”, for which the ka is recorded as 348 ± 1.02 ×10^4 M^−1 s^−1 in assay [3] (setting [5]) and 715 ± 3.66 ×10^4 M^−1 s^−1 in assay [4] (setting [7]). The kd was 4.07 ± 0.05 ×10^−4 s^−1 in assay [3] (setting [5]) and 7.58 ± 0.07 ×10^−4 s^−1 in assay [4] (setting [7]). For the same substance, the dissociation constant (Kd) in assay [3] (setting [6]) is 120 ± 1 pM; in assay [4] (setting [6]), 110 ± 1 pM.
